Reference: US20090048117

How the values were obtained:
[1] = test system: T1, GST-NIP45 fusion protein (bacterially expressed, full length NIP45)
T1 sequence: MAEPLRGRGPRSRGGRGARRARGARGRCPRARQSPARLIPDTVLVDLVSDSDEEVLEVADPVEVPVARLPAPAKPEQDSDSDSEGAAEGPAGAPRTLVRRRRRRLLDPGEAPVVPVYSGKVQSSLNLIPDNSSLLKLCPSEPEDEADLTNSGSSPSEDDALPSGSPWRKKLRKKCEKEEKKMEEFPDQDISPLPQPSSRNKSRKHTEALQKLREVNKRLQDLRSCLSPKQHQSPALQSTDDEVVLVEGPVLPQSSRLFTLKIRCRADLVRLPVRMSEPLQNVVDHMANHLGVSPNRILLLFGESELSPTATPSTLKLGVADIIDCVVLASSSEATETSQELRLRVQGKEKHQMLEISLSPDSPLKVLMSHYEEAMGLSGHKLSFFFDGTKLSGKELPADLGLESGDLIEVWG

Substance | in vitro methylation assay with affinity purified PRMTs and GST-NIP45 [1] | in vitro methylation assay with recombinant proteins (Histone H3)
Flag epitope tagged CARM1 immunoprecipitated from 293 cell extracts | In this assay, only PRMT1 was capable of methylating NIP45 | 
Flag epitope tagged PRMT3 immunoprecipitated from 293 cell extracts | In this assay, only PRMT1 was capable of methylating NIP45 | 
Flag epitope tagged PRMT5 immunoprecipitated from 293 cell extracts | In this assay, only PRMT1 was capable of methylating NIP45 | 
GST-CARM1 |  | CARM1 did methylate histone H3 (lane 7)
